Reference: patent publication US6465228B1, “Levodione reductase” (Roche Vitamins, Inc., priority 1999, dated 2002)

Columns and labels:
[1] = substrate: C[C@@H]1C[C@@H](O)CC(C)(C)C1=O; assay: Michaelis constant (Km) and maximum velocity (Vmax); assay type: biochemical, Corynebacterium aquaticum AKU611; details: other: compound as substrate; pH 7.0; 37.0 °C
Procedure: (§1) A basal reaction mixture having a total volume of 500 μl includes 100 μl of 1 M potassium phosphate buffer (pH 7.0), 20 μl of 8 mM NADH in 0.2 mM KOH, 10-40 μl of the enzyme solution (i.e., levodione reductase), and water up to a total of 500 μl . This reaction mixture was incubated for 1 minute at 37 ° C. Then, 2 μl of 0.5 M levodione solution were added to give a final concentration of 2 mM, and the whole mixture was incubated for 1 minute at 37 ° C. The levodione reductase enzyme activity was monitored with the decrease of the absorbance of NADH at 340 nm.
(§2) The Km and Vmax values of the enzyme were measured using levodione and actinol as the substrates. The basic enzyme assay method is the same as described under 1, but the substrate and the enzyme concentrations were varied.
(§3) The Km and Vmax values were calculated on the basis of the known Michaelis-Menten equation. Km is the concentration of the substrate that gives 50% of the Vmax of the enzyme reaction.

[2] = substrate: C[C@@H]1CC(=O)CC(C)(C)C1=O; assay: as above; assay type: biochemical, Corynebacterium aquaticum AKU611; details: other: compound as substrate; pH 7.0; 37.0 °C
Procedure: as §1, §2, §3

B1: levodione reductase (Leifsonia aquatica) (protein)
chain: MTATSSPTTRFTDRVVLITGGGSGLGRATAVRLAAEGAKLSLVDVSSEGLEASKAAVLETAPDAEVLTTVADVSDEAQVEAYVTATTERFGRIDGFFNNAGIEGKQNPTESFTAAEFDKVVSINLRGVFLGLEKVLKIMREQGSGMVVNTASVGGIRGIGNQSGYAAAKHGVVGLTRNSAVEYGRYGIRINAIAPGAIWTPMVENSMKQLDPENPRKAAEEFIQVNPSKRYGEAPEIAAVVAFLLSDDASYVNATVVPIDGGQSAAY
notes: The LR is isolated and purified from the cell-free extract of disrupted cells; made in house; host or cells: Corynebacterium aquaticum AKU611 (FERM BP-6448); This is the natural producer and there was no recombinant expression; The enzyme was purified by ammonium sulfate precipitation and DEAE-Sephacel, alkyl Superose and MONO Q chromatography
Km [1]: 1.36 mM
Vmax [1]: 15.91 unit/mg
Km [2]: 8.5 mM
Vmax [2]: 101.26 unit/mg
